Data on two molecules can be found in US11090322B2, “Anthracycline disulfide intermediates, antibody-drug conjugates and methods” (priority 2014, dated 2021).

The test system of one data set is tumor models. As to conditions: cited from earlier work.
The conditions of data set [1]: cited from earlier work.
Another data set deals with SK-BR-3 cells. As to the kind of experiment: In vitro cell proliferation assay (CellTiter-Glo), SK-BR-3 cell viability at 5 days. Type of data set: cell-based. The note with it: SK-BR-3, 5 days, concentrations in μg/ml; FIG. 1 and FIG. 2. As for the experimental part:
Generally, the cytotoxic or cytostatic activity of an antibody-drug conjugate (ADC) is measured by: exposing mammalian cells having receptor proteins, e.g. HER2, to the antibody of the ADC in a cell culture medium; culturing the cells for a period from about 6 hours to about 5 days; and measuring cell viability. Cell-based in vitro assays were used to measure viability (proliferation), cytotoxicity, and induction of apoptosis (caspase activation) of the ADC of the invention.
The CellTiter-Glo® Luminescent Cell Viability Assay is a commercially available (Promega Corp., Madison, Wis.), homogeneous assay method based on the recombinant expression of Coleoptera luciferase (U.S. Pat. Nos. 5,583,024; 5,674,713; 5,700,670). This cell proliferation assay determines the number of viable cells in culture based on quantitation of the ATP present, an indicator of metabolically active cells (Crouch et al (1993) J. Immunol. Meth. 160:81-88; U.S. Pat. No. 6,602,677). […]
The homogeneous “add-mix-measure” format results in cell lysis and generation of a luminescent signal proportional to the amount of ATP present. […] Viable cells are reflected in relative luminescence units (RLU). […]
Efficacy of ADC was measured by a cell proliferation assay employing the following protocol ([…] GLO™ Luminescent Cell Viability Assay, Promega Corp. Technical Bulletin TB288; Mendoza et al (2002) Cancer Res. 62:5485-5488): • 1. […]
Background: ATP-based viability assays read luminescence as a measure of living cells.

Data set [2] relates to MMTV-HER2 Fo5 transgenic mammary tumors. As to the kind of experiment: In vivo tumor growth inhibition, MMTV-HER2 Fo5 transgenic mammary tumor allograft. Also on record: species or system CRL nu/nu mice. The note with it: FIG. 5. The protocol:
For example, the in vivo efficacy of an anti-HER2 ADC of the invention can be measured by a high expressing HER2 transgenic explant mouse model (Phillips et al (2008) Cancer Res. 68:9280-90). […] Subjects were treated once with ADC at certain dose levels (mg/kg) and placebo buffer control (Vehicle) and monitored over two weeks or more to measure the time to tumor doubling, log cell kill, and tumor shrinkage.
(§1) Tumors were established and allowed to grow to 150-200 mm^3 in volume (as measured using calipers) before a single treatment on day 0. Tumor volume was measured using calipers according to the formula: V (mm^3)=0.5A×B^2, where A and B are the long and short diameters, respectively. […] Data collected from each experimental group (10 mice per group) were expressed as mean±SE.
The Fo5 mouse mammary tumor model was employed to evaluate the in vivo efficacy of antibody-drug conjugates of the invention after single dose intravenous injections, and as described previously (Phillips G D L, Li G M, Dugger D L, et al. Targeting HER2-Positive Breast Cancer with Trastuzumab-DM1, an Antibody-Cytotoxic Drug Conjugate. (2008) Cancer Res. 68:9280-90), incorporated by reference herein. […]

In another data set the test system is KPL4 tumor model. As to the kind of experiment: In vivo tumor growth inhibition, KPL4 tumor model. Also on record: species or system scid beige mice. As to conditions: single IV treatment Day 0 at 3 mg/kg; non specific anti-CD33 controls; FIG. 4. The protocol: When tumors reached a mean tumor volume of 100-250 mm3, they were grouped into 9 groups of 8-10 mice each. A single treatment was administered intravenously via the tail vein on Day 0 as follows: (01) Vehicle: Histidine Buffer #8: 20 mM Histidine Acetate, pH 5.5, 240 mM Sucrose, 0.02% PS 20, (02) Thio Hu anti-Her2 7C2 LC K149C-(ethylmaleimide) 0.3 mg/kg 138, (03) Thio Hu anti-Her2 7C2 LC K149C-(ethylmaleimide) 1 mg/kg 138, (04) Thio Hu anti-Her2 7C2 LC K149C-(ethylmaleimide) 3 mg/kg 138, (05) Thio Hu anti-Her2 7C2 LC K149C-(LD-57) 0.3 mg/kg 109, (06) Thio Hu anti-Her2 7C2 LC K149C-(LD-57) 1 mg/kg 109, (07) Thio Hu anti-Her2 7C2 LC K149C-(LD-57) 3 mg/kg 109, (08) Thio Hu Anti-CD33 15G15.3 LC K149C-(ethylmaleimide) 3 mg/kg 139, and (09) Thio Hu anti-CD33 15G15.3 LC K149C-(LD-57) 3 mg/kg 110.
as §1

Turning to `COc1cccc2c1C(=O)c1c(O)c3c(c(O)c1C2=O)C[C@@](O)(C(=O)CO)C[C@@H]3O[C@H]1C[C@H]2[C@H](O[C@@H]3[C@@H](OC)OCCN32)[C@H](C)O1` [PNU-159682, 3′-deamino-3″,4′-anhydro-[2″(S)-methoxy-3″(R)-oxy-4″-morpholinyl]doxorubicin], the “efficacy in vivo tumor models” value with tumor models is listed as “effective”. Also, the “cytotoxicity in vitro relative to nemorubicin and doxorubicin” value in data set [1] is “remarkably more cytotoxic than nemorubicin and doxorubicin”.

B1: ADC-110 (conjugate)
VH: QVQLVQSGAEVKKPGSSVKVSCKASGGIFSNHAISWVRQAPGQGLEWMGGIIPIFGTANYAQKFQGRVTITADESTSTAFMELSSLRSEDTAVYYCAREWADVFDIWGQGTMVTVSS
VL: EIVLTQSPLSLPVTPGEPASISCRSSQSLLHSNGYNYLDWYLQKPGQSPQLLIYLGVNSVSGVPDRFSGSGSGTDFTLKISRVEAEDVGVYYCMQALQTPWTFGQGTKVEIK
B1: the “cell-killing activity (in vitro cell viability versus concentration)” value in the data set on SK-BR-3 cells was “less activity”. The values for the tumor growth inhibition entry (in data set [2] (dosing once IV at 1 mg/kg); in data set [2] (dosing once IV at 3 mg/kg); with KPL4 tumor model) were “little tumor growth inhibition”, “modest tumor growth inhibition” and “little or no tumor growth inhibition”, respectively.
